According to PMC11615386, “Phosphorylation-mediated conformational change regulates human SLFN11” (Nature Communications, 2024):
Numbering of substitutions follows the chain as printed. Names and notes keep the numbering of the source.

T1: SLFN11 (Homo sapiens, UniProt Q7Z7L1, S753D)
T1 construct: S753D monomer, 104 kDa, model residues 7-897
T1 sequence (Q7Z7L1 1-901 S753D): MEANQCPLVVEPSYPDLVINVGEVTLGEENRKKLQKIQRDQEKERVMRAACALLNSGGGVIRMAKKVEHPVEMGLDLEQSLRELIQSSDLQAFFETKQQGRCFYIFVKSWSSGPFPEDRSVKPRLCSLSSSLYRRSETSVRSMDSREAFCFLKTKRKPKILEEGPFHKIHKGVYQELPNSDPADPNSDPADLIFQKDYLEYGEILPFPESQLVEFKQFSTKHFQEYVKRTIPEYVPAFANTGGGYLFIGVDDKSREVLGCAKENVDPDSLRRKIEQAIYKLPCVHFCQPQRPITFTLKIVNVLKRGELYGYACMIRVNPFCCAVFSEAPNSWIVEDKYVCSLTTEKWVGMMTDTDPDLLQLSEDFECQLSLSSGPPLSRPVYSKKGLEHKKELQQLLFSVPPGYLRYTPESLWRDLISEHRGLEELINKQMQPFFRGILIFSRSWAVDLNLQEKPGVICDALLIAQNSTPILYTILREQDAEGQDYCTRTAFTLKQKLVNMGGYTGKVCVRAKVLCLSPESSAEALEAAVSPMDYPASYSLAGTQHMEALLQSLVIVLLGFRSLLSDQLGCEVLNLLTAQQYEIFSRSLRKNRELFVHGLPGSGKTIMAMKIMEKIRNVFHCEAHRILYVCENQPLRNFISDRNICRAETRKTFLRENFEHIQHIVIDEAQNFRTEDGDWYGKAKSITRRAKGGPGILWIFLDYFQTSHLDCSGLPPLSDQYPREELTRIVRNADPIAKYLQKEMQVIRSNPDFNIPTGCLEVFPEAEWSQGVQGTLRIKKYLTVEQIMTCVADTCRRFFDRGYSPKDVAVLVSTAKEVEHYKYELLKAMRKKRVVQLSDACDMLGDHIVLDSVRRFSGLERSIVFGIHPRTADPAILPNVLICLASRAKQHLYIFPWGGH

B1: Human Schlafen 11 (SLFN11), wild type (enzyme)
chain: T1 sequence (Q7Z7L1 1-901 S753D) with D753S
notes: Schlafen 11 (SLFN11), human; N-terminal nuclease domain, linker domain and C-terminal helicase domain; also called SLFN11^wt
B2: SLFN11 phosphomimetic mutant S219D (enzyme, human)
chain: T1 sequence (Q7Z7L1 1-901 S753D) with S219D, D753S
notes: Schlafen 11 (SLFN11), human, with the phosphomimetic mutation S219D in the nuclease domain; Made by quick change PCR from the wild-type construct; also called SLFN11^S219D
B3: SLFN11 phosphomimetic mutant T230D (enzyme, human)
chain: T1 sequence (Q7Z7L1 1-901 S753D) with T230D, D753S
notes: Schlafen 11 (SLFN11), human, with the phosphomimetic mutation T230D in the nuclease domain; Made by quick change PCR from the wild-type construct; also called SLFN11^T230D

Assays:
SLFN11 = target: T1, SLFN11; experiment: nanoDSF thermal shift (Tycho NT.[…]); assay type: binding; conditions: 1 mM nucleotide, 300 nM protein, 25 mM Tris pH 7.5, 60 mM NaCl, 2 mM MgCl2
[1] = target: the molecule itself; experiment: mass photometry; 50 nM SLFN11 in 25 mM Tris pH 7.5, 2 mM MgCl2, 1 mM DTT with variable concentrations of NaCl (80 mM NaCl in Fig. 4d, e); dimer to monomers

Molecule	inflection temperature shift (SLFN11)	stoichiometry N [1]
Nc1ncnc2c1ncn2[C@@H]1O[C@H](COP(=O)(O)OP(=O)(O)OP(=O)(O)O)[C@@H](O)[C@H]1O [ATP]	ATP and ATPγS caused a large increase in the inflection temperatures of SLFN11^S753D	
B1		2
B2		2
B3		2
